Assay results reported in patent publication US20140112930A1 (published 2014).

Target: T1, hAng-1-WT (human, UniProt Q15389 20-498, limits assumed)
T1 construct: a tag is not mentioned there; also called full-length wild-type human Ang-1
T1 sequence (looked up): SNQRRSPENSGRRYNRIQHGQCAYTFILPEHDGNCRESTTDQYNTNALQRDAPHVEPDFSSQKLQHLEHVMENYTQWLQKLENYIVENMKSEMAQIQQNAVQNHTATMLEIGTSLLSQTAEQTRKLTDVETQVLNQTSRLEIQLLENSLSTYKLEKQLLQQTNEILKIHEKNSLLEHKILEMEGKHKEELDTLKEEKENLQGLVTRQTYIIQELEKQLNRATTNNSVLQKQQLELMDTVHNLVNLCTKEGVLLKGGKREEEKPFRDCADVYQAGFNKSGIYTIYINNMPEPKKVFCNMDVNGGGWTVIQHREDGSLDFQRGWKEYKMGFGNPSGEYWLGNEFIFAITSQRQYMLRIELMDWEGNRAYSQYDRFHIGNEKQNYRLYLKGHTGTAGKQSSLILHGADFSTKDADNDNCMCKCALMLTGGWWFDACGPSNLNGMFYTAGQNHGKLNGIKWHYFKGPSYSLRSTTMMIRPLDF
Experiment: SPR, 1 uM blocker premixed with 10 nM hAng-1-WT, over hTie-2-mFc surface
Procedure: In this experiment, a human Tie-2 full-length extracellular domain construct (hTie-2-mFc-ecto) was amine-coupled on a BIACORE™ chip to create a receptor coated surface. […] The equilibrated solutions were injected over the receptor surfaces at 5 μL/min for 5 minutes at 25° C.

Percent of Negative Control Binding: 34%
B1: H1H744N (antibody, V domains shown)
VH: QVQLVQSGVEVKKPGASVKVSCKTSGYTFSNNGFSWVRQAPGQGLEWLGWISGYNGNTNYAQKFQGRVTMTTDTSTSTAYMELRTLRSDDTAVYYCARDQDYSNFHWLDPWGQGTLVTVAS
VL: DIQMTQSPSSVSASVGDRVIITCRASQGLSSWLAWYQQKPGTAPKLLIHSASSLQTGVPSRFSGSGSGTEFALTINSLQPEDFGTYYCQQANSFPLTFGGGTRVEIK
